T1: GFP1 Right TAL-PBx (synthetic)
T1 chain: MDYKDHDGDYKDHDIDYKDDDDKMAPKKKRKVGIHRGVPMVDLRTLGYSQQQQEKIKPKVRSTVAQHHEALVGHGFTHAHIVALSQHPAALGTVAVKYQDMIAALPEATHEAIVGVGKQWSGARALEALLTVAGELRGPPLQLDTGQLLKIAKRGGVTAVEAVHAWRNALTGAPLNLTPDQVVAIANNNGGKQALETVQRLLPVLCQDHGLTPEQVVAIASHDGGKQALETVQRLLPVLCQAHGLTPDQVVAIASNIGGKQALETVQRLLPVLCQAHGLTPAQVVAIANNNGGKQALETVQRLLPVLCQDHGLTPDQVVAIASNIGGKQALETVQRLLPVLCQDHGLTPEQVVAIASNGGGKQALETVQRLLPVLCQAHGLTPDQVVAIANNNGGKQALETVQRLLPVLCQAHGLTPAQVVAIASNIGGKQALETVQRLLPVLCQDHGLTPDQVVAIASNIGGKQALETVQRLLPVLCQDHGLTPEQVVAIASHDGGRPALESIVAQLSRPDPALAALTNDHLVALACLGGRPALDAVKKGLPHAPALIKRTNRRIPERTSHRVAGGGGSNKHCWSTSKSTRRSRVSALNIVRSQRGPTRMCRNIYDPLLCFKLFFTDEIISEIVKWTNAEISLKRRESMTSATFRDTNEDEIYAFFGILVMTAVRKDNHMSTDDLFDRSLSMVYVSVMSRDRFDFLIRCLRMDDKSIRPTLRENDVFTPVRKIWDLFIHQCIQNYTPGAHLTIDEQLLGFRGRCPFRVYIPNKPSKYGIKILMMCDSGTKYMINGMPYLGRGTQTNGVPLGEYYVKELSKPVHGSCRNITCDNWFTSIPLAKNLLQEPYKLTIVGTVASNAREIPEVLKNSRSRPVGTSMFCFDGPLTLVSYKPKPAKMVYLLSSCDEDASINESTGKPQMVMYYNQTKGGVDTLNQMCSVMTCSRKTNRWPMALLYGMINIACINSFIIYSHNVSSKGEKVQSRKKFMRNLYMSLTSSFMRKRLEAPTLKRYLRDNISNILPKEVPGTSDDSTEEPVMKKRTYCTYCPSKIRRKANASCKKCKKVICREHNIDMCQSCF

B1: GFP1 Right 12bp TTTAAA (dsDNA)
DNA 1: TGCAGATGAACGCAATCTCCGGTTTAAATACTGACTGAAGTTCATCTGCA
DNA 2: TGCAGATGAACTTCAGTCAGTATTTAAACCGGAGATTGCGTTCATCTGCA
B2: GFP1 Right 12bp CTTAAA (dsDNA)
DNA 1: TGCAGATGAACGCAATCTCCGGCTTAAATACTGACTGAAGTTCATCTGCA
DNA 2: TGCAGATGAACTTCAGTCAGTATTTAAGCCGGAGATTGCGTTCATCTGCA
B3: GFP1 Right 13bp CTTAAC (dsDNA)
DNA 1: TGCAGATGAACGCAATCTCACGGCTTAACTACTGACCTGAAGTTCATCTGCA
DNA 2: TGCAGATGAACTTCAGGTCAGTAGTTAAGCCGTGAGATTGCGTTCATCTGCA
B4: GFP1 Right 13bp CTTAAG (dsDNA)
DNA 1: TGCAGATGAACGCAATCTCACGGCTTAAGTACTGACCTGAAGTTCATCTGCA
DNA 2: TGCAGATGAACTTCAGGTCAGTACTTAAGCCGTGAGATTGCGTTCATCTGCA
B5: GFP1 Right 13bp TTTAAG (dsDNA)
DNA 1: TGCAGATGAACGCAATCTCACGGTTTAAGTACTGACCTGAAGTTCATCTGCA
DNA 2: TGCAGATGAACTTCAGGTCAGTACTTAAACCGTGAGATTGCGTTCATCTGCA
B6: GFP1 Right 13bp CTTAAA (dsDNA)
DNA 1: TGCAGATGAACGCAATCTCACGGCTTAAATACTGACCTGAAGTTCATCTGCA
DNA 2: TGCAGATGAACTTCAGGTCAGTATTTAAGCCGTGAGATTGCGTTCATCTGCA
B7: GFP1 Right 13bp TTTAAA (dsDNA)
DNA 1: TGCAGATGAACGCAATCTCACGGTTTAAATACTGACCTGAAGTTCATCTGCA
DNA 2: TGCAGATGAACTTCAGGTCAGTATTTAAACCGTGAGATTGCGTTCATCTGCA

Biological target: T1, GFP1 Right TAL-PBx
Test: cell_activity; HEK293T
Conditions: tags: PBx fusion; chain copies: 2 (palindromic half-sites; inferred)
Method: Each reporter plasmid and donor plasmid were cotransfected into HEK293T cells with the GFP1 Right TAL-PBx expression plasmid (SEQ ID No. 77). […] HEK293T cells were plated in 24 well plates in 500 μL of DMEM medium supplemented with 10% FBS. The following day, a transfection mixture containing 50 ng of the TAL-ssSPB expression vector, 225 ng of the reporter plasmid, 225 ng of donor plasmid and 1 μL of JetPrime transfection reagent in a total volume of 50 μL of JetPrime buffer were assembled. The mixture was added to the HEK293T cells and the cells were incubated for four days at 37° C. at 5% CO2, splitting the cells 1:6 on day one. The percentage of on-target site-specific transposition positive cells for the various constructs were determined by FACS analysis on day 4.
When the reporter and donor plasmids are co-transfected into cells along with TAL-PBx, TAL-PBx catalyzes the excision of the transposon from the donor plasmid and its site-specific integration into the TTAA target site of the reporter plasmid. Following site-specific transposition, transcription, splicing, and translation, a reconstituted GFP coding sequence is produced (DNA SEQ ID No. 75; Amino acid SEQ ID No. 76) and fluorescence can be detected. The percentage of on-target site-specific transposition positive cells for the various spacer length constructs were determined by FACS analysis and the results are shown in Table 9.
In the case of B1, the activity is reported as 30.8 % GFP+ cells.
B2 gave an activity of 34.6 % GFP+ cells.
B3 showed an activity of 20.9 % GFP+ cells.
For B4, the activity was 24.7 % GFP+ cells.
In the case of B5, the activity is reported as 32.2 % GFP+ cells.
With B6 the activity was 32.8 % GFP+ cells.
In the case of B7, the activity is reported as 27 % GFP+ cells.

— US20260022354, “TRANSPOSASES AND USES THEREOF” (Poseida Therapeutics, Inc., published 2026)
